# B1: Nedd4-2: ubiquitin ligase, Nedd4-family member, human (protein)
# chain: MERPYTFKDFLLRPRSHKSRVKGFLRLKMAYMPKNGGQDEENSDQRDDMEHGWEVVDSNDSASQHQEELPPPPLPPGWEEKVDNLGRTYYVNHNNRTTQWHRPSLMDVSSESDNNIRQINQEAAHRRFRSRRHISEDLEPEPSEGGDVPEPWETISEEVNIAGDSLGLALPPPPASPGSRTSPQELSEELSRRLQITPDSNGEQFSSLIQREPSSRLRSCSVTDAVAEQGHLPPPSAPAGRARSSTVTGGEEPTPSVAYVHTTPGLPSGWEERKDAKGRTYYVNHNNRTTTWTRPIMQLAEDGASGSATNSNNHLIEPQIRRPRSLSSPTVTLSAPLEGAKDSPVRRAVKDTLSNPQSPQPSPYNSPKPQHKVTQSFLPPGWEMRIAPNGRPFFIDHNTKTTTWEDPRLKFPVHMRSKTSLNPNDLGPLPPGWEERIHLDGRTFYIDHNSKITQWEDPRLQNPAITGPAVPYSREFKQKYDYFRKKLKKPADIPNRFEMKLHRNNIFEESYRRIMSVKRPDVLKARLWIEFESEKGLDYGGVAREWFFLLSKEMFNPYYGLFEYSATDNYTLQINPNSGLCNEDHLSYFTFIGRVAGLAVFHGKLLDGFFIRPFYKMMLGKQITLNDMESVDSEYYNSLKWILENDPTELDLMFCIDEENFGQTYQVDLKPNGSEIMVTNENKREYIDLVIQWRFVNRVQKQMNAFLEGFTELLPIDLIKIFDENELELLMCGLGDVDVNDWRQHSIYKNGYCPNHPVIQWFWKAVLLMDAEKRIRLLQFVTGTSRVPMNGFAELYGSNGPQLFTIEQWGSPEKLPRAHTCFNRLDLPPYETFEDLREKLLMAVENAQGFEGVD
# modifications: left off: FLAG, C-terminal, kept
# notes: ubiquitin ligase, Nedd4-family member, human
# Columns and labels:
# SGK = assay: Co-immunoprecipitation of Nedd4-2 with SGK in COS7 cells; format: binding, human; details: Nedd4-2-FLAG and SGK-HA, IP anti-HA, blot anti-FLAG, data not shown
# Procedure: Co-immunoprecipitation was used to characterize an in vitro interaction between Nedd4-2 and SGK. Nedd4-2-FLAG and SGK-HA were co-expressed in COS7 cells, SGK was immunoprecipitated with anti-HA, and the presence of Nedd4-2 in the immunoprecipitates was assessed by western blotting with anti-FLAG. […] We reasoned that SGK would be rapidly turned over in the cells, and this would be enhanced by overexpression of active Nedd4-2, since Nedd4-2 is known to induce degradation of SGK [23]. Therefore we co-expressed a stable form of SGK (ΔN60SGK-HA, lacking the first 60 amino acids of SGK), together with a ligase-dead form of Nedd4-2 (Nedd4-2C821A–FLAG).
# (A) ΔN60SGK-HA and Nedd4-2C821A–FLAG were transiently co-expressed, or expressed alone as indicated, in COS7 cells. Complexes were immunoprecipitated with anti-HA antibody. Immunoprecipitates were analyzed by 10% SDS-PAGE and sequential western blotting (IB) with anti-FLAG antibody (Nedd4-2) and anti-HA antibody (ΔN60SGK). Expression of the proteins (5% input) is shown in the bottom panel, n = 3. Either ΔN60SGK-HA (B, E) or SGK-FLAG (C, D) was transiently expressed in COS7 cells. […] Bound SGK was analyzed by immunostaining with anti-FLAG/HA antibody. […]
# COS7 cells were co-transfected with ΔN60SGK-HA and Nedd4-2C821A-FLAG. […] The beads were washed four times in T-TBS and analysed by SDS-PAGE and Western blotting with anti-FLAG (Sigma).
# ENaC = assay: Amiloride-sensitive short circuit current in FRT epithelia with ENaC: Nedd4-2 dose response with SGK, SGKY298A or GFP; format: cell-based; details: FRT epithelia with α-, β-, γENaC, increasing amounts of Nedd4-2 (0–0.2 µg), no SGK; amiloride 10 µM; n = 18
# Procedure: To test the hypothesis that the interaction of the Nedd4-2 WW-domains with the SGK PY motif is required for SGK to influence Nedd4-2 function, we co-expressed α-, β- and γENaC in FRT epithelia with either wild type SGK or SGKY298A along with increasing amounts of Nedd4-2, and measured the amiloride-sensitive short circuit current.
# Figure 4 The SGK PY motif is necessary for SGK to inhibit Nedd4-2. Amiloride-sensitive short-circuit sodium current (relative to 0 µg of Nedd4-2) in FRT cells 48 hr after transfection with α-, β- and γENaC and SGK (closed circles) or SGKY298A (open circles) or GFP (closed squares), in the presence of increasing amounts of Nedd4-2, n = 18. Nedd4-2 is expressed as a fraction of the amount of ENaC cDNA. Expression of SGK and SGKY298A was reported in Figure 1B of Snyder et al..
# Fischer rat thyroid (FRT) cells were grown on permeable filter supports (Snapwell™, Corning USA or Millicell PCF, both with […] pore size, 12 mm diameter) in F-12 Coon's media with 5% fetal calf serum (Sigma), 100 U/ml penicillin, and 100 µg/ml streptomycin at 37°C. One day after seeding, cells were cotransfected with α-, β- and γENaC (0.07 µg each), 0.6 µg wildtype or mutant SGK, and 0–0.2 µg Nedd4-2 (Fig. 4 only). Total DNA was held constant (1 µg/millicell) using cloning vector DNA. The plasmids were mixed with Lipofectamine 2000 (Invitrogen) or TFX 50 (Promega, Madison, WI; 7.9 µg/millicell) in serum free F12 Coon's media for 15 minutes and transferred to the apical surface of the monolayer. One-six hours later, the apical media was replaced with F-12 Coon's media containing 5% fetal calf serum and amiloride (10 µM). Short-circuit current was measured […] after transfection in modified Ussing chambers connected to a voltage clamp (South Campus Electronics, Dunedin, New Zealand or Warner Instruments). The apical and basolateral surfaces were bathed in (in mM) 135 NaCl, 1.2 CaCl2, 1.2 MgCl2, 2.4 K2HPO4, 0.6 KH2PO4, 10 HEPES, pH 7.4, at 37°C and bubbled with O2. Amiloride-sensitive short-circuit current (Isc-amiloride) was determined as the difference in current with and without amiloride (10 µM) in the apical bathing solution. Data are presented as relative Isc-amiloride (Isc-amiloride relative) that was obtained by normalizing the Isc-amiloride to that of control cells transfected with αβγENaC in the same experiment. Transepithelial resistance (Rt) was monitored by applying repetitive voltage potential pulses (5 mV for 1 sec at 120 sec intervals) across the epithelium.
molecule,measurement,setting,value
B1,co-immunoprecipitation with SGK (in words),SGK,co-precipitated with SGK but the amount of Nedd4-2 co-precipitated was small
same,inhibition of ENaC by Nedd4-2 in the absence of SGK (in words),ENaC,inhibited ENaC in a dose-dependent manner

# Source: paper PMC2921341, “Interaction of Serum- and Glucocorticoid Regulated Kinase 1 (SGK1) with the WW-Domains of Nedd4-2 Is Required for Epithelial Sodium Channel Regulation” (PLoS ONE, 2010)
